This test addresses N-terminal His (six histadine)-tagged IRF5 (222-425) SEQ ID NO 22 (UniProt Q13568 222-425). As to the kind of experiment: TR-FRET. A general note: TR-FRET usually uses a lanthanide donor and a delayed reading to cut background.

Primed or numbered codes have the meaning given here. FITC′ = fluorescein isothiocyanate; Ahx = NCCCCCC(=O)O

Sequence of N-terminal His (six histadine)-tagged IRF5 (222-425) SEQ ID NO 22 (Q13568 other isoform, or with tags, fused parts or gaps): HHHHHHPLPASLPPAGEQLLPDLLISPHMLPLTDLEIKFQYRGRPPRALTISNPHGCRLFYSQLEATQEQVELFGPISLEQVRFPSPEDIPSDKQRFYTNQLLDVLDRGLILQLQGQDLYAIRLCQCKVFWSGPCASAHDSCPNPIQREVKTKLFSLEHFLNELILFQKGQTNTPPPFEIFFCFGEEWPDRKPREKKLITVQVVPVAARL

What is called Kd is the constant that tells how readily two partners part at equilibrium. In turn, {FITC′-Ahx}-IRLQISNPYLKFIPLKRAIWLIK-NH2 [FITC-Aha-IRLQISNPYLKFIPLKRAIWLIK-NH2 (SEQ ID NO: 16)] gave a Kd of 930 nM.

The molecule {FITC′-Ahx}-MIILIISFPKHKDWKVILVK-NH2 [FITC-Aha-MIILIISFPKHKDWKVILVK-NH2 (SEQ ID NO: 17)] displayed a Kd of 530 nM.

The record behind these values is patent US20160009772A1 (published 2016).
